In patent publication US5851983, “Elastase inhibitory polypeptide and process for production thereof by recombinant gene technology” (Teijin Limited, dated 1998):
Read-outs that look alike come from different tables or passages of the source. No end group written: not given here.

What was measured:
[1] = molecular target: T1, Bovine spleen chymotrypsin (Sigma) (bovine, UniProt P00766); experiment: cell-based or functional assay
[2] = molecular target: T2, Porcine spleen elastase (Sigma) (porcine, UniProt P00772); experiment: cell-based or functional assay
[3] = molecular target: T3, Human cathepsin G (EPC Co., Funakoshi Yakuhin) (human, UniProt P08311); experiment: cell-based or functional assay
T3 sequence: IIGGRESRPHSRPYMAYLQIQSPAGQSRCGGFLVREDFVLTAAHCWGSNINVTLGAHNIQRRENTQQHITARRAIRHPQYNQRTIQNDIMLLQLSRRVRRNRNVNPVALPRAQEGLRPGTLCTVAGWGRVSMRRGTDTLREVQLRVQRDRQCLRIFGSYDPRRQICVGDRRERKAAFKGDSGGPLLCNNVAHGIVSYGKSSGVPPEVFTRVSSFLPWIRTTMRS

[4] = molecular target: T1, Bovine spleen chymotrypsin (Sigma); experiment: cell-based or functional assay; remark: listed apart in the source
[5] = molecular target: T2, Porcine spleen elastase (Sigma); experiment: cell-based or functional assay; remark: listed apart in the source
[6] = molecular target: T3, Human cathepsin G (EPC Co., Funakoshi …); experiment: cell-based or functional assay; remark: listed apart in the source
[7] = molecular target: T4, Polymorphonuclear leukocyte elastase from human sputum (EPC Co.; Funakoshi Yakuhin) (human, UniProt P08246); experiment: enzyme inhibition; method not described
[8] = molecular target: T5, Bovine spleen trypsin (Sigma) (bovine, UniProt P00760); experiment: enzyme inhibition with Bz-Arg-pNA, Ki by the Henderson method
Protocol: (§1) To wells of an ELISA 96-well microtiter plate, were added 120 μl of the buffer, 20 μl of a sample solution of (Arg^59-Ala^107) SLPI obtained in Example 23, and 20 μl of the enzyme solution in this order, an the mixture was reacted at 37° C. for 1 hour. Next, 20 μl of the substrate was added to develop at 25° C. Absorption of the developed color was measured at 405 nm. As a control, SLPI was used.

[9] = molecular target: T5, Bovine spleen trypsin (Sigma); experiment: as above; remark: listed apart in the source
Protocol: as §1, with “(Arg^55-Ala^107)” for “(Arg^59-Ala^107)”, “25,” for “23,”

[10] = molecular target: T4, Polymorphonuclear leukocyte elastase …; experiment: enzyme inhibition with MeO-Suc-Ala-Ala-Pro-Val-pNA, Ki by the Henderson method
[11] = molecular target: T4, Polymorphonuclear leukocyte elastase …; experiment: as above; remark: listed apart in the source
Protocol: as §1, with “(Arg^55-Ala^107)” for “(Arg^59-Ala^107)”, “25,” for “23,”

[12] = molecular target: Calf pancreatic chymotrypsin (Sigma) (calf (bovine), UniProt P00766); experiment: cell-based or functional assay
[13] = molecular target: Porcine pancreatic elastase (Sigma) (porcine, UniProt P00772); experiment: cell-based or functional assay
Human plasma thrombin = Human plasma thrombin (human, UniProt P00734); experiment: cell-based or functional assay
Human plasma plasmin = Human plasma plasmin (human, UniProt P00747); experiment: cell-based or functional assay
Human plasma kallikrein = Human plasma kallikrein (human, UniProt P03952); experiment: cell-based or functional assay
[14] = molecular target: T4, Polymorphonuclear leukocyte elastase …; experiment: enzyme inhibition with chromogenic substrate, Ki by the Dixon method
Protocol: (§2) To each well of a 96-well ELISA microplate were added 140 μl of the above-mentioned buffer, 20 μl of a test solution, and 20 μl of the enzyme solution, and the mixture was stirred at 37° C. for 30 minutes. Next, 20 μl of the substrate solution was added to the well, the mixture was stirred at 37° C. for one hour to develop same, and the absorbance at 405 nm was measured.
(§3) Moreover, an inhibitory constant Ki of the present (Asn^55-Ala^107) SLPI was calculated on the basis of the above data by a method of Dixon, M. and Webb, E. C. (1979), Enzyme, Longman or a method of Henderson, P. J. F. (1972) Biochem. J., 127, 321–333.

[15] = molecular target: T6, Calf pancreatic trypsin (Sigma) (calf (bovine), UniProt P00760); experiment: as above
Protocol: as §2, §3

[16] = molecular target: T4, Polymorphonuclear leukocyte elastase …; experiment: enzyme inhibition with chromogenic substrate, Ki by the Henderson method
Protocol: as §2, §3

[17] = molecular target: T6, Calf pancreatic trypsin (Sigma); experiment: as above
Protocol: as §2, §3

[18] = molecular target: T3, Human cathepsin G (EPC Co., Funakoshi …); experiment: cell-based or functional assay; remark: listed apart in the source

B1: Human secretory leukoprotease inhibitor (SLPI) (other)
chain: SGKSFKAGVCPPKKSAQCLRYKKPECQSDWQCPGKKRCCPDTCGIKCLDPVDTPNPTRRKPGKCPVTYGQCLMLNPPNFCEMDGQCKRDLKCCMGMCGKSCVSPVKA
B1 was tested, and the “IC50” value [1] was 7 nM, the “IC50” value [2] was 13000 nM and the “IC50” value [3] was 5.5 nM. The “IC50” value [4] was 7 nM, the “IC50” value [5] was 13000 nM and the “IC50” value [6] was 5.5 nM. The Ki [7] was 0.25 nM, the Ki [8] was 33 nM and the Ki [9] was 33 nM. The Ki [10] was 0.08 nM and the Ki [11] was 0.08 nM.

B2: (Asn^55 -Ala^107) SLPI fragment polypeptide (other)
chain: NPTRRKPGKCPVTYGQCLMLNPPNFCEMDGQCKRDLKCCMGMCGKSCVSPVKA
modifications: also: intramolecular disulfides in refolded form, pairing not given here
For B2, the “concentration of inhibitory protein which exhibits a 50% inhibition” value [12] was 10 nM, the “concentration of inhibitory protein which exhibits a 50% inhibition” value [13] was 200 nM and the “concentration of inhibitory protein which exhibits a 50% inhibition” value (Human plasma thrombin) was > 2 µM. For the same binder, the “concentration of inhibitory protein which exhibits a 50% inhibition” value (Human plasma plasmin) was > 2 µM, the “concentration of inhibitory protein which exhibits a 50% inhibition” value (Human plasma kallikrein) was > 2 µM and the Ki [14] was 0.03 nM. For the same binder, the Ki [15] was 60 nM, the Ki [16] was 0.2 nM and the Ki [17] was 20 nM.

With RRKPGKCPVTYGQCLMLNPPNFCEMDGQCKRDLKCCMGMCGKSCVSPVKA (other) [(Arg^58 -Ala^107) SLPI] the “IC50” value [4] was 6.8 nM, the “IC50” value [5] was 23000 nM and the “IC50” value [6] was 8 nM. It also gave a Ki [9] of 1100 nM and a Ki [11] of 0.09 nM.

RKPGKCPVTYGQCLMLNPPNFCEMDGQCKRDLKCCMGMCGKSCVSPVKA (other) [(Arg^59 -Ala^107) SLPI] was tested, and the IC50 value [18] was 11 nM, the “IC50” value [1] was 5.8 nM and the “IC50” value [2] was 11000 nM. The “IC50” value [3] was 8 nM, the Ki [8] was 1100 nM and the Ki [10] was 0.08 nM.
